Experimental data as given in the supplement of paper PMC9170038.

System: MS2 coat protein
Test: apparent KD of MS2 coat protein; higher = weaker reporter binding
Conditions: Eterna round: R107
Summary of the method: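 Titrations with SNAP-549-labelled MS2 coat protein ran in twofold steps from 0.7 or 1.5 nM to 3 µM, each step taking 0.8–1.5 h at the start and 10–20 min toward the end. The targets were designed RNA switches transcribed on-chip from Illumina sequencing clusters, held in 100 mM Tris-HCl pH 7.5, 80 mM KCl, 4 mM MgCl2, without or with constant ligand. Apparent KD was taken per design as the median of normalised cluster binding-curve fits.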

[1] = input ligand: theophylline 20 uM
[2] = input ligand: theophylline 2 mM
[3] = input ligand: tryptophan 2.4 mM

GAUAUGGAAACAUGUCAGAUCCUUACCGGUCGAGGACCGGUACGGCCGCCACUCGGAAAUAUUGUACAUGAGGAUCACCCAUGUA [Ex Tryptophan A 18]
apparent KD of MS2 coat protein (input ligand: arginine 13.2 mM): 14.1 nM | apparent KD of MS2 coat protein [1]: 16.1 nM | apparent KD of MS2 coat protein [2]: 16.1 nM

GAUCCACAUGAGGAUCACCCAUGUGAGGAUACCAGUACCAGAUCCUACCCUUGGCAGCCUAACCUUCAUUCAACACGAAUAAGAA [theeternabot_sameState_MS2_Theo_A_20]
apparent KD of MS2 coat protein (input ligand: arginine 13.2 mM): 13.8 nM | apparent KD of MS2 coat protein [1]: 16.7 nM | apparent KD of MS2 coat protein [3]: 15 nM

GAUGAUAUUGCAGAUACCAGACACAUGAGGAUCACCCAUGUCGCUGGGUUACUGGGUCGUGUCCCUUGGCAGCUGCGAUAUCAUC [Belize]
apparent KD of MS2 coat protein (input ligand: arginine 13.2 mM): 33.6 nM | apparent KD of MS2 coat protein [1]: 89.2 nM | apparent KD of MS2 coat protein [3]: 42.1 nM

GAUUGCAUCGAUUCUCCACUCGCACCUGAUACCAGCGAUAGAAUUCGCCCUUGGCAGCAGUACACAUGAGGAUCACCCAUGUUAU [theeternabot_exclusion_MS2_Theo_A_20]
apparent KD of MS2 coat protein (input ligand: arginine 13.2 mM): 25.5 nM | apparent KD of MS2 coat protein [1]: 42.4 nM | apparent KD of MS2 coat protein [3]: 35 nM

GAUUGGAUUUGAAGGAGCGUCGAAAAUGGGUAAACAUGAGGAUCACCCAUGUAAAGGGAACGACAGGUAGGUCGCAAAUUUAAUC [AstromonsSSArgB#31]
apparent KD of MS2 coat protein (input ligand: arginine 13.2 mM): 84.7 nM | apparent KD of MS2 coat protein (input ligand: none): 111 nM | apparent KD of MS2 coat protein [1]: 148 nM | apparent KD of MS2 coat protein [2]: 213 nM | apparent KD of MS2 coat protein [3]: 162 nM

GAUUUAACAAAAGUUGGAUCAGUGGGUGAACGAGGACCGGUACGGCCGCCACUCGGACAUGAGGAUCACCCAUGUCCAUGUGAAA [AstrosExyTryA#19]
apparent KD of MS2 coat protein (input ligand: arginine 13.2 mM): 47.2 nM | apparent KD of MS2 coat protein (input ligand: none): 129 nM | apparent KD of MS2 coat protein [1]: 167 nM | apparent KD of MS2 coat protein [2]: 121 nM | apparent KD of MS2 coat protein [3]: 77.1 nM

GCACAACAUGAGGAUCACCCAUGUCGAGAUACCAGAACAUAUAUAUUCCCUUGGCAGCUCACACCUUUAAUGUAAAAUUCUUUGG [theeternabot_sameState_MS2_Theo_A_47]
apparent KD of MS2 coat protein (input ligand: arginine 13.2 mM): 12 nM | apparent KD of MS2 coat protein [1]: 15.9 nM | apparent KD of MS2 coat protein [3]: 13.9 nM

GCACCAGGUACGGAUACCAGACGUUGCCAAACAGGGUGACAUGAGGAUCACCCAUGUACUGUCCCUUGGCAGCCGUACCUGGUGC [EThB NP+V+V2 #4 +-Same Structure]
apparent KD of MS2 coat protein (input ligand: arginine 13.2 mM): 20.2 nM | apparent KD of MS2 coat protein [1]: 53 nM | apparent KD of MS2 coat protein [3]: 22.6 nM

GCAUCCUAGUCGGCCGCCACUACAACAUGAGGAUCACCCAUGUGUGGGAGAUCCGUCCUACGAAGUAGGACCGGGACUAGGAUGC [(T1)-(M1)-(M2)-(T)''-(M)'-(T)'-(T2)_Design5_2/18/17]
apparent KD of MS2 coat protein (input ligand: arginine 13.2 mM): 110 nM | apparent KD of MS2 coat protein [1]: 337 nM | apparent KD of MS2 coat protein [2]: 324 nM

GCCAUCGGCGGAAGCCGAUGGGAUACAGAAGGAGCGCGGAUUAACGCAGGUAGGUCGCUGGACAUGAGGAUCACCCAUGUAAUAG [SSAA #9]
apparent KD of MS2 coat protein (input ligand: arginine 13.2 mM): 19.2 nM | apparent KD of MS2 coat protein (input ligand: none): 22.8 nM | apparent KD of MS2 coat protein [1]: 41.9 nM | apparent KD of MS2 coat protein [2]: 22.5 nM | apparent KD of MS2 coat protein [3]: 18.5 nM

GCGCUCGACAGAAGGAGCGGCGACGUCGGUGUCAGGAGGCACAUGAGGAUCACCCAUGUCAGCCAGGUAGGUCGCUGUCGAUCGC [Arquce]
apparent KD of MS2 coat protein (input ligand: arginine 13.2 mM): 22.8 nM | apparent KD of MS2 coat protein (input ligand: none): 37.3 nM | apparent KD of MS2 coat protein [1]: 41.9 nM | apparent KD of MS2 coat protein [2]: 40.1 nM | apparent KD of MS2 coat protein [3]: 36.8 nM

GCGGAAUAAUCGGCCGCCACUAUGAGACAGGAAACUGUCACAUGAGGAUCACCCAUGUAUCCUCAUAGGACCGGGAUUAAAACGC [Melting point difference]
apparent KD of MS2 coat protein (input ligand: arginine 13.2 mM): 76.8 nM | apparent KD of MS2 coat protein [1]: 109 nM | apparent KD of MS2 coat protein [2]: 100 nM

GCGGAAUAAUCGGCCGCCACUAUGAUAUAGGAAACUAUAACAUGAGGAUCACCCAUGUAUCCUCAUAGGACCGGGAUUAAAACGC [TrypB - CS]
apparent KD of MS2 coat protein (input ligand: arginine 13.2 mM): 39.7 nM | apparent KD of MS2 coat protein [1]: 121 nM | apparent KD of MS2 coat protein [2]: 101 nM

GCGGACAUGAGGAUCACCCAUGUAAAUCCUCGAGGACCGGUACGGCCGCCACUCGAACGAGUGGCGCGCGCGCGCGCGCGCGCGC [aAa]
apparent KD of MS2 coat protein (input ligand: arginine 13.2 mM): 25.3 nM | apparent KD of MS2 coat protein (input ligand: none): 40.5 nM | apparent KD of MS2 coat protein [1]: 119 nM | apparent KD of MS2 coat protein [2]: 78.9 nM | apparent KD of MS2 coat protein [3]: 45.2 nM

GCUAGGUCUACGGCCGCCACUAGACGUGGGUUAAACAUGAGGAUCACCCAUGUGCUACAGGCGCAUAGGACCGGGUAGACCUAGC [SSTB NP+V+V2 #9 +-Same Structure]
apparent KD of MS2 coat protein (input ligand: arginine 13.2 mM): 86.5 nM | apparent KD of MS2 coat protein (input ligand: none): 494 nM | apparent KD of MS2 coat protein [1]: 586 nM | apparent KD of MS2 coat protein [2]: 696 nM | apparent KD of MS2 coat protein [3]: 63.7 nM

GCUAGUGGCAGAAGGAGCGAGGCCCGCGCACAUAACAUGAGGAUCACCCAUGUGGCGAGACCUCAGGUAGGUCGCUGCCACUAGC [EAB NP+V2 #1]
apparent KD of MS2 coat protein (input ligand: arginine 13.2 mM): 12 nM | apparent KD of MS2 coat protein (input ligand: none): 11.4 nM | apparent KD of MS2 coat protein [1]: 25.8 nM | apparent KD of MS2 coat protein [2]: 14.2 nM | apparent KD of MS2 coat protein [3]: 12.4 nM

GCUAUGGCUGGAAGGAGCGUGAAUUUCAGCGAACAUGAGGAUCACCCAUGUAAGGAUAUGGCACAGGUAGGUCGCUAGCCAUAGC [#19 Same State - Arginine B]
apparent KD of MS2 coat protein (input ligand: arginine 13.2 mM): 13.6 nM | apparent KD of MS2 coat protein (input ligand: none): 14.3 nM | apparent KD of MS2 coat protein [1]: 21.2 nM | apparent KD of MS2 coat protein [2]: 15.1 nM | apparent KD of MS2 coat protein [3]: 13.4 nM

GCUGCCAUACGAAGGAGCGCUGCUGCGAUGUGGCGAACAUGAGGAUCACCCAUGUGGCAGCGGCAGGUAGGUCGCGUAUGGCAGC [#02 Exclusion - Arginine B]
apparent KD of MS2 coat protein (input ligand: arginine 13.2 mM): 45.2 nM | apparent KD of MS2 coat protein (input ligand: none): 166 nM | apparent KD of MS2 coat protein [1]: 330 nM | apparent KD of MS2 coat protein [2]: 297 nM | apparent KD of MS2 coat protein [3]: 206 nM

GCUGUGAAGUCGGCCGCCACUGGUUAGUUUAACCUCAUGUAACAUGAGGAUCACCCAUGUAAUGUCAGGACCGGGACAACAGCAA [JR_ExcTryptoB_Sub016]
apparent KD of MS2 coat protein (input ligand: arginine 13.2 mM): 131 nM | apparent KD of MS2 coat protein (input ligand: none): 145 nM | apparent KD of MS2 coat protein [1]: 236 nM | apparent KD of MS2 coat protein [2]: 289 nM | apparent KD of MS2 coat protein [3]: 357 nM

GCUGUGAAGUCGGCCGCCACUGGUUAGUUUUACCUCAUGUAACAUGAGGAUCACCCAUGUAAUUUCAGGACCGGGACAACAGCAA [JR_ExcTryptoB_Sub017]
apparent KD of MS2 coat protein (input ligand: arginine 13.2 mM): 135 nM | apparent KD of MS2 coat protein [1]: 588 nM | apparent KD of MS2 coat protein [2]: 853 nM
